Assay results reported in article PMC10176505, “PYK-SubstitutionOME: an integrated database containing allosteric coupling, ligand affinity and mutational, structural, pathological, bioinformatic and computational information about pyruvate kinase isozymes” (Database: The Journal of Biological Databases and Curation, 2023).

System: T1, C=C(OP(=O)(O)O)C(=O)O
T1 construct: full-length liver isozyme; homotetramer; purified or partially purified
Assay: enzyme kinetics, PEP concentration at half Vmax
Format: biochemical, Homo sapiens
Settings: no allosteric effector; apparent affinity (not an association constant)
Excerpt: enzyme kinetics, PEP concentration at half Vmax on hLPYK | Ka-PEP (the kinetic equivalent to Kia-PEP), the apparent affinity for PEP

hLPYK (Homo sapiens), sequence (chain, as listed by the source): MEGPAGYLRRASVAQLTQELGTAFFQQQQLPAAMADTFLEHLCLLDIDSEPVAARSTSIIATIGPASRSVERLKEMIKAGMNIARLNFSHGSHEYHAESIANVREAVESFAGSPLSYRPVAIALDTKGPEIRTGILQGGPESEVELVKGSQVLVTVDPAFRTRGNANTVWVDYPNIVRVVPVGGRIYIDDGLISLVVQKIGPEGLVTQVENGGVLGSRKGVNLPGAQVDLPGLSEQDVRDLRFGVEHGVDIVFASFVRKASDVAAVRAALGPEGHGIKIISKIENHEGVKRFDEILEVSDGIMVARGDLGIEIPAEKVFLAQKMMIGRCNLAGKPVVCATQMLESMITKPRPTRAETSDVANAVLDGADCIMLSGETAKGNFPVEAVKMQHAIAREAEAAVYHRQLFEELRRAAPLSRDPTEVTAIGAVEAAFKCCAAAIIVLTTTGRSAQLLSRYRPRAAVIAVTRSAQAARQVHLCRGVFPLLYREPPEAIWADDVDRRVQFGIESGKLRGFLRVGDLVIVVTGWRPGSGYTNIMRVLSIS

**Q.** How did the K0.5 turn out when hLPYK (Homo sapiens) was run?
**A.** Its K0.5 is 0.22 mM.
